Experimental data as given in patent US20030166162A1.

Target: thrombin
Test: cell-based or functional assay

Sequence of GST (Glutathion-S-transferase) expressed from pGEX-4T-3 (P08515 whole entry): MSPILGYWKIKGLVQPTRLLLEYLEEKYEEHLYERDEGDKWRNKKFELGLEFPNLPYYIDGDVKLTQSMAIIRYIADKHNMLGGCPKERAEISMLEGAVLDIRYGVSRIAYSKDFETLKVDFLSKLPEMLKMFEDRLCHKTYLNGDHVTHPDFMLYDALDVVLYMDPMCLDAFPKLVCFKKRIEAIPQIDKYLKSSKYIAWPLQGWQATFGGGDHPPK

thrombin activity, delta Abs (405 nm)/2 min, Test 1; sample C: pH 2.0 + 2 ug chymosin (Abs (405 nm)/2 min) | thrombin activity, delta Abs (405 nm)/2 min, Test 2; sample C: pH 2.0 + 2 ug chymosin (Abs (405 nm)/2 min) | Substance | thrombin activity, delta Abs (405 nm)/2 min, Test 1; sample E: pH 4.5 + 2 ug chymosin (Abs (405 nm)/2 min) | thrombin activity, delta Abs (405 nm)/2 min, Test 2; sample E: pH 4.5 + 2 ug chymosin (Abs (405 nm)/2 min) | other results
0.063 | 0.073 | GST (Glutathion-S-transferase) expressed from pGEX-4T-3 (from UniProt P08515 1-218) | 0.087 | 0.087 | thrombin activity, delta Abs (405 nm)/2 min, Test 1; sample A: supernatant + water (Abs (405 nm)/2 min): 0.087; thrombin activity, delta Abs (405 nm)/2 min, Test 1; sample B: pH 2.0 (Abs (405 nm)/2 min): 0.082; thrombin activity, delta Abs (405 nm)/2 min, Test 1; sample D: pH 4.5 (Abs (405 nm)/2 min): 0.087; thrombin activity, delta Abs (405 nm)/2 min, Test 2; sample A: supernatant + water (Abs (405 nm)/2 min): 0.082; thrombin activity, delta Abs (405 nm)/2 min, Test 2; sample B: pH 2.0 (Abs (405 nm)/2 min): 0.073; thrombin activity, delta Abs (405 nm)/2 min, Test 2; sample D: pH 4.5 (Abs (405 nm)/2 min): 0.086
 |  | Hirudin 2 ug (positive control of Table 1) |  |  | thrombin activity, delta Abs (405 nm)/2 min, Test 1; Hirudin 2 ug (Abs (405 nm)/2 min): 0.0001; thrombin activity, delta Abs (405 nm)/2 min, Test 2; Hirudin 2 ug (Abs (405 nm)/2 min): 0.0001
0.066 | 0.07 | cleavage product of GST-Pro-Hirudin treated at pH 2.0 with 2 ug chymosin |  |  | 
 |  | hirudin released from GST-Pro-Hirudin by treatment at pH 4.5 with 2 ug chymosin (from UniProt P01050 1-65) | 0.0002 | 0.0001 | 
